Like-named read-outs stand apart in the source and are kept apart here.
Experiments:
[1] = Temperature- and urea-dependent fluorescence landscapes of fluorescent conjugates (Roche LightCycler); format: binding; design: key: y, yes; n, no; conditions: fluorescent response to urea
Protocol: We constructed 20 single cysteine mutants in csUBP7, exploring 7 endosteric, 12 peristeric, and 1 allosteric position (FIG. 9). At each position we attached the Prodan-derived fluorophores Acrylodan and Badan, which differ by one methylene group in their thiol-reactive linker. The fluorescent responses of these conjugates was determined initially as a function of urea concentration and temperature (FIG. 10). […] The ligand dependence of the emission spectra shapes was determined for these conjugates (Table 8).
Determination of temperature- and ligand-dependent fluorescence landscapes. […] Urea concentrations were varied from 0-4.8 M in 20 mM KCl, 20 mM MOPS (pH 7.4). […] Temperatures were advanced in 1K steps.
(§1) Ratiometric analysis of urea binding. […] 2
(§2) For a single urea-binding site, the fractional saturation is given by
(§3) [formula] where [L] is the ligand (urea) concentration and Kd the dissociation constant, ^trueKd for ytrue.
To obtain the temperature dependence of the binding reaction, the Kd values of all the individually determined isotherms were fit the Gibbs-Hemholtz equation (Layton and Hellinga, 2010, Biochemistry, 49, 10831-41):
[formula] where ΔGb^•(T) is the standard free energy of binding at 1 M ligand at temperature T,
[formula] Δ^refHb^• and Δ^refSb^• the molar enthalpy and entropy of binding, respectively, at the reference temperature, Tref, and ΔCp,b the heat capacity of the binding reaction.

[2] = Urea titration of emission intensity spectra (Nanodrop3300) with ratiometric analysis, singly labeled conjugates; format: binding; design: key to Acrylodan Intensity / Badan Intensity: +, increases in response to urea; −, decreases; 0, no change; key to Badan Dipoles / Acrylodan Dipoles: blue, (maxima <500 nm); g, green (maxima >500 nm); b/g, mixed population; key to Acrylodan Shape / Badan Shape: m, monochromatic; d, dichromatic (i.e. spectral shape changes); 0, no change; conditions: for Acrylodan Intensity / Badan Intensity: emission intensity change on urea; for Acrylodan Shape / Badan Shape: emission spectrum shape change on urea; for Acrylodan Dipoles / Badan Dipoles: estimated change in populations of major emission bands; for Kd: urea
Text: Determination of emission intensity spectra.
as §1, §2, §3
[formula] where ^appIλ2 and ^satIλ2 are the emission intensities of the monochromatic signal at wavelength λ2 of the ligand-free and ligand-bound protein, respectively.

[3] = csUBP7 Acrylodan conjugate, read-out: Acrylodan ^trueKd
[4] = csUBP7 Badan conjugate, read-out: Badan ^trueKd

Molecule | Response ([1]; Acrylodan conjugate) | Response ([1]; Badan conjugate) | ratiometric response to urea ([2]; Acrylodan and Badan conjugates screened) | Acrylodan Intensity ([2]; csUBP7 Acrylodan conjugate) | Acrylodan Shape ([2]; csUBP7 Acrylodan conjugate) | Acrylodan Dipoles ([2]; csUBP7 Acrylodan conjugate) | Kd [2, 3] | Badan Intensity ([2]; csUBP7 Badan conjugate) | Badan Shape ([2]; csUBP7 Badan conjugate) | Badan Dipoles ([2]; csUBP7 Badan conjugate) | Kd [2, 4]
csUBP7 R95C: csUBP7 95C cysteine mutant (SEQ ID NO: 32), tested as Acrylodan and Badan conjugates (conjugate, Acrylodan or Badan conjugate; csUBP7_95C (95C substitution mutant with signal peptide replaced with M and a GGSHHHHHH at C-terminus, and also comprising a C89A substitution)) MSSSESEKEKSEETIKVGILHSLSGTMSISEVSLKDAELMAIEEINNNGGVLGKKLEPIVEDGASDWPTFAEKAKKLLQKDKVAVIFGAWTSASCKAVLPVVEENNGLLFYPVQYEGLESSPNIFYMGAAPNQQIVPAVKWLFDNGKKRFYLLGSDYVFPRTANKIIKAYLKYLGGVVVGEEYTPLGHTDYSSVINKIKAAKPDVVFNTLNGDSNVAFFKQLKDAGIDANTLPVMSVSIAEEEIKGIGPEYLKGHLVTWNYFQSVDTPENKEFVEKYKKKYGEDRVTDDPIEAAYIGVYLWAKAVEKAGSTDVDKVREAAKGIEFNAPEGPVKIDGDNQHLYKTVRIGEILENGQIRELWKTNKPVKPDPYLKGYEWAQGLSEQGGSHHHHHH | y | y | good ratiometric responses | − | m | b (blue, (maxima <500 nm)) | 0.3 mM | + | d | g→b | 2.2 mM
csUBP7 T26C: csUBP7 26C cysteine mutant (SEQ ID NO: 23), tested as Acrylodan and Badan conjugates (conjugate, Acrylodan or Badan conjugate; csUBP7_26C (26C substitution mutant with signal peptide replaced with M and a GGSHHHHHH at C-terminus, and also comprising a C89A substitution)) MSSSESEKEKSEETIKVGILHSLSGCMSISEVSLKDAELMAIEEINNNGGVLGKKLEPIVEDGASDWPTFAEKAKKLLQKDKVAVIFGAWTSASRKAVLPVVEENNGLLFYPVQYEGLESSPNIFYMGAAPNQQIVPAVKWLFDNGKKRFYLLGSDYVFPRTANKIIKAYLKYLGGVVVGEEYTPLGHTDYSSVINKIKAAKPDVVFNTLNGDSNVAFFKQLKDAGIDANTLPVMSVSIAEEEIKGIGPEYLKGHLVTWNYFQSVDTPENKEFVEKYKKKYGEDRVTDDPIEAAYIGVYLWAKAVEKAGSTDVDKVREAAKGIEFNAPEGPVKIDGDNQHLYKTVRIGEILENGQIRELWKTNKPVKPDPYLKGYEWAQGLSEQGGSHHHHHH | y | y |  | − | d | b→g | 0.09 mM | − | m | b/g | 0.3 mM
csUBP7 M27C: csUBP7 27C cysteine mutant (SEQ ID NO: 24), tested as Acrylodan and Badan conjugates (conjugate, Acrylodan or Badan conjugate; csUBP7_27C (27C substitution mutant with signal peptide replaced with M and a GGSHHHHHH at C-terminus, and also comprising a C89A substitution)) MSSSESEKEKSEETIKVGILHSLSGTCSISEVSLKDAELMAIEEINNNGGVLGKKLEPIVEDGASDWPTFAEKAKKLLQKDKVAVIFGAWTSASRKAVLPVVEENNGLLFYPVQYEGLESSPNIFYMGAAPNQQIVPAVKWLFDNGKKRFYLLGSDYVFPRTANKIIKAYLKYLGGVVVGEEYTPLGHTDYSSVINKIKAAKPDVVFNTLNGDSNVAFFKQLKDAGIDANTLPVMSVSIAEEEIKGIGPEYLKGHLVTWNYFQSVDTPENKEFVEKYKKKYGEDRVTDDPIEAAYIGVYLWAKAVEKAGSTDVDKVREAAKGIEFNAPEGPVKIDGDNQHLYKTVRIGEILENGQIRELWKTNKPVKPDPYLKGYEWAQGLSEQGGSHHHHHH | y | y |  | + | m | g (g, green (maxima >500 nm)) | 4.6 mM | − | d | g→b/g | 3.2 mM
csUBP7 S238C: csUBP7 238C cysteine mutant (SEQ ID NO: 42), tested as Acrylodan and Badan conjugates (conjugate, Acrylodan or Badan conjugate; csUBP7_238C (238C substitution mutant with signal peptide replaced with M and a GGSHHHHHH at C-terminus, and also comprising a C89A substitution)) MSSSESEKEKSEETIKVGILHSLSGTMSISEVSLKDAELMAIEEINNNGGVLGKKLEPIVEDGASDWPTFAEKAKKLLQKDKVAVIFGAWTSASRKAVLPVVEENNGLLFYPVQYEGLESSPNIFYMGAAPNQQIVPAVKWLFDNGKKRFYLLGSDYVFPRTANKIIKAYLKYLGGVVVGEEYTPLGHTDYSSVINKIKAAKPDVVFNTLNGDSNVAFFKQLKDAGIDANTLPVMSVCIAEEEIKGIGPEYLKGHLVTWNYFQSVDTPENKEFVEKYKKKYGEDRVTDDPIEAAYIGVYLWAKAVEKAGSTDVDKVREAAKGIEFNAPEGPVKIDGDNQHLYKTVRIGEILENGQIRELWKTNKPVKPDPYLKGYEWAQGLSEQGGSHHHHHH | n | n |  |  |  |  |  |  |  |  | 
bsUBP3 T77C: bsUBP3 77C cysteine mutant (SEQ ID NO: 44), tested as Acrylodan conjugate (conjugate, Acrylodan conjugate; bsUBP3_77C (77C substitution mutant with signal peptide replaced with M and a GGSHHHHHH at C-terminus)) MKVGILHSLSGTMAISEVSVHDAELIAIQEINQKGGVLGKKLEPVVEDGASDWPTYAEKMRKLLQQDKVAAVFGGWCSASRKAMLPVVEQNNGLLFYPVQYEGMETSPNIFYTGATTNQQIVPAVDWLLKNKGKKFFLIGSDYVFPRTANKIIKAQVKAGGGEIAGEEYTPLGHTNYSTLVSKIKEKQPDVIFNTLNGDSNVAFFKQLKDAGISADDMPVMSASVAEEEIRGIGPDVLKGHYAVWNYFQTTNTSENQTFVKNYKKMNGDSRVTSDPIEAGYNAVYLWAAAVEKAKSFDVDKVKKAADGISFKAPGGTVKIDGDTQHLYKTVRIGQITGDGQFKEVWNSGEPVKPDPYLKTYDWAKGLSKGGSHHHHHH | y |  |  |  |  |  |  |  |  |  | 
bsUBP3 A79C: bsUBP3 79C cysteine mutant (SEQ ID NO: 46), tested as Acrylodan conjugate (conjugate, Acrylodan conjugate; bsUBP3_79C (79C substitution mutant with signal peptide replaced with M and a GGSHHHHHH at C-terminus)) MKVGILHSLSGTMAISEVSVHDAELIAIQEINQKGGVLGKKLEPVVEDGASDWPTYAEKMRKLLQQDKVAAVFGGWTSCSRKAMLPVVEQNNGLLFYPVQYEGMETSPNIFYTGATTNQQIVPAVDWLLKNKGKKFFLIGSDYVFPRTANKIIKAQVKAGGGEIAGEEYTPLGHTNYSTLVSKIKEKQPDVIFNTLNGDSNVAFFKQLKDAGISADDMPVMSASVAEEEIRGIGPDVLKGHYAVWNYFQTTNTSENQTFVKNYKKMNGDSRVTSDPIEAGYNAVYLWAAAVEKAKSFDVDKVKKAADGISFKAPGGTVKIDGDTQHLYKTVRIGQITGDGQFKEVWNSGEPVKPDPYLKTYDWAKGLSKGGSHHHHHH | y |  |  |  |  |  |  |  |  |  | 
bsUBP3 L172C: bsUBP3 172C cysteine mutant (SEQ ID NO: 48), tested as Acrylodan conjugate (conjugate, Acrylodan conjugate; bsUBP3_172C (172C substitution mutant with signal peptide replaced with M and a GGSHHHHHH at C-terminus)) MKVGILHSLSGTMAISEVSVHDAELIAIQEINQKGGVLGKKLEPVVEDGASDWPTYAEKMRKLLQQDKVAAVFGGWTSASRKAMLPVVEQNNGLLFYPVQYEGMETSPNIFYTGATTNQQIVPAVDWLLKNKGKKFFLIGSDYVFPRTANKIIKAQVKAGGGEIAGEEYTPCGHTNYSTLVSKIKEKQPDVIFNTLNGDSNVAFFKQLKDAGISADDMPVMSASVAEEEIRGIGPDVLKGHYAVWNYFQTTNTSENQTFVKNYKKMNGDSRVTSDPIEAGYNAVYLWAAAVEKAKSFDVDKVKKAADGISFKAPGGTVKIDGDTQHLYKTVRIGQITGDGQFKEVWNSGEPVKPDPYLKTYDWAKGLSKGGSHHHHHH | y |  |  |  |  |  |  |  |  |  | 

Reference: US11906524B2, “Urea biosensors and uses thereof” (Duke University, priority 2015, dated 2024)
